Laboratory results: PMC9701394, “Modified exosomal SIRPα variants alleviate white matter injury after intracerebral hemorrhage via microglia/macrophages” (Biomaterials Research, 2022)

Molecular target: T1, biotinylated CD47 (UniProt Q08722 19-141, biotin (by BirA ligase, on the Avi tag))
T1 construct: CD47, IgSF domain; the SPR methods say only 'biotinylated CD47'. 'Purified as described above' would imply a His tag and a cleaved GST; also called CD47 IgSF domain
Assay: SPR; biotinylated CD47 (Rmax ~150 RU) captured on Biacore SA sensor chip at 25 °C; serial dilutions of SIRPα in HBS-P buffer; regeneration with 2 mol/L MgCl2; Langmuir binding model, Biacore T200
Conditions: both partners purified

T1 sequence (Q08722 19-141): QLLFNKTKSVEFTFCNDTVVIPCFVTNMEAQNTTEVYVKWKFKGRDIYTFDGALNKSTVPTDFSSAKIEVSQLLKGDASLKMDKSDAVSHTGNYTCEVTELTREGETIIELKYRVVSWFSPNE

Kd: 365 nM
dissociation half-life (t1/2): 2.4 s
B1: wild-type SIRPα (SIRPα WT), soluble monomer (domain or fragment, human, UniProt P78324 31-148, looked up)
chain: EEELQVIQPDKSVLVAAGETATLRCTATSLIPVGPIQWFRGAGPGRELIYNQKEGHFPRVTTVSDLTKRNNMDFSIRIGNITPADAGTYYCVKFRKGSPDDVEFKSGAGTELSVRAKP
notes: signal regulatory protein α (SIRPα), human, N-terminal V-set Ig domain; also called wild-type human SIRPα; SIRPα WT monomer; source: E. coli BL-21(DE3), purified (Ni-NTA; GST removed with HRV 3C protease); not shown: GST, N-terminal, cleaved
